Experimental data from publication PMC4362353.

Biological target: recombinant adeno-associated virus-6 vector particle (rAAV6 capsid) (adeno-associated virus 6)
Assay: co-sedimentation

B1: secreted human Galectin 3-binding protein from HEK293 culture medium (natural protein)
chain: VNDGDMRLADGGATNQGRVEIFYRGQWGTVCDNLWDLTDASVVCRALGFENATQALGRAAFGQGSGPIMLDEVQCTGTEASLADCKSLGWLKSNCRHERDAGVVCTNETRSTHTLDLSRELSEALGQIFDSQRGCDLSISVNVQGEDALGFCGHTVILTANLEAQALWKEPGSNVTMSVDAECVPMVRDLLRYFYSRRIDITLSSVKCFHKLASAYGARQLQGYCASLFAILLPQDPSFQMPLDLYAYAVATGDALLEKLCLQFLAWNFEALTQAEAWPSVPTDLLQLLLPRSDLAVPSELALLKAVDTWSWGERASHEEVEGLVEKIRFPMMLPEELFELQFNLSLYWSHEALFQKKTLQALEFHTVPFQLLARYKGLNLTEDTYKPRIYTSPTWSAFVTDSSWSARKSQLVYQSRRGPLVKYSSDYFQAPSDYRYYPYQSFQTPQHPSFLFQDKRVSWSLVYLPTIQSCWNYGFSCSSDELPVLGLTKSGGSDRTIAYENKALMLCEGLFVADVTDFEGWKAAIPSALDTNSSKSTSSFPCPAGHFNGFRTVIRPFYLTNSSGVD
percent of rAAV6 in the pellet fraction (2,000 g, 10 minutes): 70% | percent of rAAV6 in the precipitate (10,000 g, 30 minutes): 90%
